The text below walks through data of article PMC11109965, “Correction of non-random mutational biases along a linear bacterial chromosome by the mismatch repair endonuclease NucS” (Nucleic Acids Research, 2024).

Data set [1] deals with the molecule itself. Briefly: SEC-MALS; fractions of the main gel filtration peak of NucSSam; molecular weights determined on the right side of the peaks because peak homogeneity was moderate. On the technique in general: Size exclusion chromatography separates by hydrodynamic size, large species first.
Data set [2] deals with the molecule itself. The data set is described as follows: SEC + SEC-MALS; purified His-tagged β-clampSam; gel filtration (single peak, about 97 kDa) and SEC-MALS (about 84 kDa).

B1: NucS from Streptomyces ambofaciens (NucSSam), N-terminal His-tagged (enzyme, Streptomyces ambofaciens ATCC23877, UniProt A0ABN4PBG3 1-223, looked up)
chain: MRLVIARCSVDYAGRLTAHLPSAPRLILVKADGSVSIHADDRAYKPLNWMSPPCTLKEGTGEEEGVWTVVNKAGEKLIITMEEILHDSSHELGVDPGLIKDGVEAHLQELLADRIETLGEGYTLIRREYMTAIGPVDILCRDAEGRTVAVEIKRRGEIDGVEQLTRYLELLNRDPHLAPVRGVFAAQEIKPQARVLATDRGIGCQVLDYNAMRGIEDDKLRLF
notes: 223 amino acids; calculated molecular weight 24762.44 Da; Found as monomer and dimer in solution, the monomer prevailing; the monomeric fraction was used in the cleavage assays; also called EndoMS/NucS; His-tagged NucSSam; not shown: His-tag, N-terminal, kept
The stoichiometry N is a count of units in the complex or per binding partner. For the protein B1, in data set [1], the “stoichiometry N” value is 2.

B2: β-clamp from Streptomyces ambofaciens (β-clampSam), N-terminal His-tagged (natural protein)
chain: MKIRVERDVLAEAVAWAARSLPARPPAPVLAGLLLKAEEGQLSLSSFDYEVSARVSVEAEVEEEGTVLVSGRLLADISRALPNRPVEISTDGVRATVVCGSSRFTLHTLPVEEYPALPQMPEATGTVPGEVFAAAVQQVAIAAGRDDTLPVLTGVRIEIEGDSVTLASTDRYRFAVREFLWKPENPEVSAVALVPAKTLQDTAKALTSGDQVILALAGSGAGEGLIGFEGAGRRTTTRLLEGDLPKYKTLFPTEFNSIAVIETAPFVEAVKRVALVAERNTPVRLSFEQGVLILEAGSSDDAQAVERVDAQLEGDDISIAFNPTFLLDGLSAIDSPVAQLSFTTSTKPALLSGKPAVDAEADEAYKYLIMPVRLSG
Consider B2, for which, in data set [2], the “stoichiometry N” value is 2.
